# Reference: patent US20190309044A1, “POLYPEPTIDES AND USES THEREOF AS A DRUG FOR TREATMENT OF AUTOIMMUNE DISORDERS” (Compugen Ltd., priority 2017, published 2019)
# B1: C1ORF32 ECD-Fc (SEQ ID NO:42): human-mouse fusion protein: human C1ORF32 ECD fused to mouse immunoglobulin Fc (SEQ ID NO:42) (protein)
# chain: LQVTVPDKKKVAMLFQPTVLRCHFSTSSHQPAVVQWKFKSYCQDRMGESLGMSSTRAQSLSKRNLEWDPYLDCLDSRRTVRVVASKQGSTVTLGDFYRGREITIVHDADLQIGKLMWGDSGLYYCIITTPDDLEGKNEDSVELLVLGRTGLLADLLPSFAVEIMGSENLYFQGSGEPRGPTIKPCPPCKCPAPNLLGGPSVFIFPPKIKDVLMISLSPIVTCVVVDVSEDDPDVQISWFVNNVEVHTAQTQTHREDYNSTLRVVSALPIQHQDWMSGKEFKCKVNNKDLPAPIERTISKPKGSVRAPQVYVLPPPEEEMTKKQVTLTCMVTDFMPEDIYVEWTNNGKTELNYKNTEPVLDSDGSYFMYSKLRVEKKNWVERNSYSCSVVHEGLHNHHTTKSFSRTPGK
# modifications: Fusion protein human C1ORF32-ECD fused to mouse IgG2a Fc
# How the values were obtained:
# SJL/J mice = experiment: BBB breakdown and inflammation by fluorescence molecular tomography, adoptive transfer R-EAE; assay type: in vivo, mouse; details: Day +30
# Procedure: Commercially available near infrared (NIR) imaging agents were used to perform tomographic imaging (PerkinElmer Inc., Boston, Mass.). AngioSense®750 was used as a vascular imaging agent, and Cat B® 680 FAST was used to detect regions of increased lysosomal cathepsin B activity. For the in vivo imaging, mice were injected intravenously with 4 nmol of NIR fluorescent agent 24 hrs prior to imaging, and imaged following the last treatment with Control Ig or C1ORF32 ECD-Fc (SEQ ID NO: 42) (Day +30 post-PLP139-151 blast cell transfer). At the time of imaging, mice were anesthetized by administration of sodium pentobarbital (50 mg/kg) and then imaged using the FMT 2500 fluorescence molecular tomography in vivo imaging system (PerkinElmer Inc., Boston, Mass.). […] Appropriate optical filters allowed the collection of both fluorescence and excitation datasets, and the multiple source-detector fluorescence projections were normalized to the paired collection of laser excitation data. […] The collected fluorescence data was reconstructed by FMT 2500 system software (TrueQuant, PerkinElmer Inc., Boston, Mass.) which compensates for the effects of tissue heterogeneity on light scattering, allowing for the quantification of fluorescence signal within multiple organ regions. […] All data was normalized to fluorescence detected in CFA/saline-immunized healthy control mice. […]
# male DBA-1 mice = experiment: Established collagen induced arthritis (CIA), macroscopic and histological scores; assay type: in vivo, mouse
# Procedure: Bovine type II collagen (CII) (RUNMC in house production, batch 03-04-08) at a concentration of 2 mg/ml in acetic acid 0.05M was emulsified in equal volumes of Freund's complete adjuvant (2 mg/ml of Mycobacterium tuberculosis strain H37Ra; Difco, Detroit, Mich.).
# On day 0, 10-12 week old male DBA-1 mice (Janvier Elevage, France) (n=95) were immunized i.d. at the base of the tail with 100 μg of bovine CII. On day 21, mice received an intraperitoneal booster injection of 50 μg of CII dissolved in phosphate buffered saline (PBS), and the onset of arthritis occurred a few days after this booster.
# Joint inflammation in each paw was scored visually, using a scale of 0-2 per paw with a maximal score of 8 per animal: 0=non inflamed, 1=mild inflammation, 1.5=marked inflammation, and 2=severe inflammation. Scoring was performed three times a week.
# Treatment was started in established CIA early after onset of disease (i.e. therapeutic regimen), when the macroscopic scores per animal were between 0.25 and 1.25 (on a scale of 0-8). […] Histology was scored for inflammation and destruction on an arbitrary scale of 0-3, for five different parameters: […]
# Joints were fixed for at least 4 days in 4% formaldehyde, decalcified in 5% formic acid, and subsequently dehydrated and embedded in paraffin. […] The severity of inflammation in the joints was scored on a scale of 0-3 (0=no cells, 1=mild cellularity, 2=moderate cellularity, and 3=maximal cellularity). […] Depletion of PG was determined using an arbitrary scale of 0-3, ranging from normal, fully stained cartilage to destained cartilage, fully depleted of PGs. Chondrocyte death was scored on a scale of 0-3 ranging from no loss of chondrocyte nuclei to complete empty cartilage surface. The degree of cartilage surface erosion was scored on a scale of 0-3, ranging from no damage to complete loss of articular cartilage. […] Histopathological changes in the joint were scored on three semiserial sections of the joint spaced 70 μm apart. […]
molecule,measurement,setting,value
B1,monocyte/macrophage activity in the brain and spinal cord (lysosomal CathepsinB activity),SJL/J mice; did not reach statistical significance,decreased monocyte/macrophage activity
same,vascular leakage in the brain and spinal cord (AngioSense),SJL/J mice; significantly reduced levels,decreased vascular leakage
same,clinical (macroscopic) scores of arthritis,"male DBA-1 mice; 10 mg/kg i.p. 3x/wk 2 wks, p<0.001 vs mIgG2a",significantly reduced
same,overall outcome in three CIA studies,"male DBA-1 mice; mouse, in vivo",excellent results in two studies and weak results in one study
